From publication PMC8754659 come the findings set out here.

Test [1] concerns the target BH-REC1 fragment of NmeCas9 (Neisseria meningitides). Description: ITC. (In general: Isothermal titration calorimetry measures the heat released or taken up as one component is titrated into another.)
In test [2] the target is NmeCas9 (Neisseria meningitides) (UniProt C9X1G5). The experiment in a line: ITC.
Chain of NmeCas9 (Neisseria meningitides) (C9X1G5 whole entry): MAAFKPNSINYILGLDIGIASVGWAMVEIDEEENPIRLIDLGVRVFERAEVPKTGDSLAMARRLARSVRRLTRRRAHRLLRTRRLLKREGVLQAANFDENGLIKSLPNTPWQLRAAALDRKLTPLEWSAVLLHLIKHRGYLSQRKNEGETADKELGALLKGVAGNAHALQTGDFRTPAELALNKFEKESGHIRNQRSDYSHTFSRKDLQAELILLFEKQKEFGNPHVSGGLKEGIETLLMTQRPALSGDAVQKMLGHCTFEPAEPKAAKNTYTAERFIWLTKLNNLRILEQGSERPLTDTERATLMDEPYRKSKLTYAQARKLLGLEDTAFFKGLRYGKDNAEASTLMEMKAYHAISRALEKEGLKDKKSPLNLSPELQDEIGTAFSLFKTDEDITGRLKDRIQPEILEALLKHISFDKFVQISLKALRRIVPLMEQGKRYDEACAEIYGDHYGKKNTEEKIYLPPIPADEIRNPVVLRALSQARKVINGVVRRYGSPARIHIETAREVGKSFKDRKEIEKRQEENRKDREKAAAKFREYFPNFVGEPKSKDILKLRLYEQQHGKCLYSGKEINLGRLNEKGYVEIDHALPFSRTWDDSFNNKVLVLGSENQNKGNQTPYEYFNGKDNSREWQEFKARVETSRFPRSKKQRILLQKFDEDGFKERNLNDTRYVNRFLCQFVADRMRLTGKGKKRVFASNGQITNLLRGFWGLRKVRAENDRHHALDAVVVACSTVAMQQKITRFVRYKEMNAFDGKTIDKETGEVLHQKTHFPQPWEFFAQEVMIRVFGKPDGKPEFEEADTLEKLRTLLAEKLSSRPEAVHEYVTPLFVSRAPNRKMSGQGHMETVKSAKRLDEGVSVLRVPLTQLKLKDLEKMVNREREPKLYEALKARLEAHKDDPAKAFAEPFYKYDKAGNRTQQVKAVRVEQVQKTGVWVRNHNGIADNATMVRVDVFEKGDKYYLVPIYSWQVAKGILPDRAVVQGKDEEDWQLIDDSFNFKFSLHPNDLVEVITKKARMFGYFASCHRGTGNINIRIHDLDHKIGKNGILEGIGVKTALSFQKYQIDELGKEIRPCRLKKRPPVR

“AcrIIA17 D81A/E84A mutant (natural protein)”: the fold reduction in binding affinity against wild-type AcrIIA17 in test [1] came out at 20 fold.

Usually Kd stands for the concentration at which binding is half-saturated. A low value points to tighter binding. By stoichiometry N is commonly meant a count of units in the complex or per binding partner. For the substance AcrIIA17 (natural protein), in test [1], the fold reduction of the binding affinity in high salt against 300 mM salt was 10 fold. In test [2], this substance came in with a Kd of 5 nM and a stoichiometry N of 1.
